Results: US20250197467A1 (BRIGHT PEAK THERAPEUTICS, published 2025)
Substitutions are numbered along the chain they refer to. “And” between values parts separate entries of the source, which are not always exact repeats. Equal values may be shown once.

T1: IL-18 receptor (IL-18Rαβ) on cells (UniProt Q13478 19-541; O95256 20-599, limits assumed)
T1 sequence (looked up) 1: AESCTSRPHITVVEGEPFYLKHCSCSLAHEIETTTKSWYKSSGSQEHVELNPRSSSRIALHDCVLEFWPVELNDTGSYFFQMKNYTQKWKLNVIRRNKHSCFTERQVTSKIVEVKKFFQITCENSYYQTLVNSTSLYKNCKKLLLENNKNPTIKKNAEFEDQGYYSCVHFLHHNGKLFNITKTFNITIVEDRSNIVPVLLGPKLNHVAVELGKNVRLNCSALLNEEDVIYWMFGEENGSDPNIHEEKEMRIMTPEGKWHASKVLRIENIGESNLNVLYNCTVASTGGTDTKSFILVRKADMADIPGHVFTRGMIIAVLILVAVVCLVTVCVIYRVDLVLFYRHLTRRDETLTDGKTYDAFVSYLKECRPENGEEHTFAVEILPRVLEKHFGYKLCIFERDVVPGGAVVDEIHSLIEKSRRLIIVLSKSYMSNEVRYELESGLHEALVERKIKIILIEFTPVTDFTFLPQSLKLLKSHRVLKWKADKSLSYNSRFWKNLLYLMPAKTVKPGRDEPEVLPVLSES
T1 sequence (looked up) 2: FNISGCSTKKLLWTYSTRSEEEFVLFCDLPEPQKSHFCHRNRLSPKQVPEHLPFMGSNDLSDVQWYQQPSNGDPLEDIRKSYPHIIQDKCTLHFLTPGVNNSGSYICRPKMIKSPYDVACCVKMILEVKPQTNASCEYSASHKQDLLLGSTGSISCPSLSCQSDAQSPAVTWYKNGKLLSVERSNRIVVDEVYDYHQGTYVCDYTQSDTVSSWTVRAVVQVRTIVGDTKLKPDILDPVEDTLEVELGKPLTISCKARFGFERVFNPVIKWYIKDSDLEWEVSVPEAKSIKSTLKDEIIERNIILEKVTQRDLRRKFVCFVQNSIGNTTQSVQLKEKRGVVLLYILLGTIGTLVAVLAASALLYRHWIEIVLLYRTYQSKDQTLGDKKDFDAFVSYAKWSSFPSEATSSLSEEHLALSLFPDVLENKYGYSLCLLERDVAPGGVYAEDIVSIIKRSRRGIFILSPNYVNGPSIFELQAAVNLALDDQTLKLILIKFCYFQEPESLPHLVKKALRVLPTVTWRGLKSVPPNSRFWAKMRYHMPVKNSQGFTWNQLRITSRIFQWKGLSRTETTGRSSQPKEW

B1: C140 (ligand)
chain: GGGGYFGKLKSKLSIIRNLNDQVLFIDQGNRPLFEDMTDSDARDNAPRTIFIISMYADSQPRGMAVAISVKCEKISTLSAENKIISFKEMNPPDNIKDTKSDIIFFQRSVPGHDNKMQFESSSYEGYFLAAEKERDLFKLILKKEDELGDRSIMFTVQNED
B2: C141 (ligand)
chain: GYFGKLKSKLSIIRNLNDQVLFIDQGNRPLFEDMTDSDARDNAPRTIFIISMYADSQPRGMAVAISVKCEKISTLSAENKIISFKEMNPPDNIKDTKSDIIFFQRSVPGHDNKMQFESSSYEGYFLAAEKERDLFKLILKKEDELGDRSIMFTVQNED
B3: C192 (ligand)
chain: B2 chain with M52G
B4: SEQ ID NO 34 (ligand)
chain: YFGKLKSKLSVIRNLNDQVLFIDQGNRPLFEDMTDSDCRDNAPRTIFIISMYADAQPRGMAVTISVKCEKISTLSCENKIISFKEMNPPDNIKDTKSDIIFFQRSVPGHDNKMQFESSSYEGYFLACEKERDLFKLILKKEDELGDRSIMFTVQNED
B5: C142 (ligand)
chain: B4 chain with Y1M, V11I, C38A, A55S, T63A, C76A, C127A
B6: C184 (ligand)
chain: B4 chain with K6R, V11I, C38A, A55S, T63A, C76A, C127A
B7: SEQ ID NO 60 (ligand)
chain: B4 chain with C38Q, A55S
B8: SEQ ID NO 57 (ligand)
chain: B4 chain with C38S, A55S
B9: C143 (ligand)
chain: B4 chain with K6E, V11I, C38A, A55S, C76A, C127A
B10: C144 (ligand)
chain: B4 chain with K6E, V11I, C38A, A55S, T63A, C76A, C127A
B11: C177 (ligand)
chain: B4 chain with V11I, C38A, I49R, A55S, T63A, C76A, C127A
B12: SEQ ID NO 50 (ligand)
chain: B4 chain with A55S, T63A
B13: SEQ ID NO 54 (ligand)
chain: B4 chain with C38S, A55S, C68S, K70C, C76S, C127S
B14: C174 (ligand)
chain: B4 chain with K8L, V11I, C38A, A55S, T63A, C76A, C127A
B15: C183 (ligand)
chain: B4 chain with V11I, C38A, M51G, A55S, T63A, C76A, C127A
B16: C178 (ligand)
chain: B4 chain with V11I, C38A, A55S, T63A, C76A, Q103R, C127A
B17: C176 (ligand)
chain: B4 chain with V11I, C38A, I49M, A55S, T63A, C76A, C127A
B18: C182 (ligand)
chain: B4 chain with V11I, C38A, A55S, T63A, C76A, C127A, V153Y
B19: SEQ ID NO 56 (ligand)
chain: B4 chain with C38S, A55S, C76S, C127S
B20: C179 (ligand)
chain: B4 chain with K8E, V11I, C38A, A55S, T63A, C76A, Q103R, C127A
B21: C181 (ligand)
chain: B4 chain with V11I, C38A, A55S, T63A, C76A, C127A, V153E
B22: SEQ ID NO 59 (ligand)
chain: B4 chain with C38A, A55S
B23: SEQ ID NO 42 (ligand)
chain: B4 chain with T63A
B24: SEQ ID NO 62 (ligand)
chain: B4 chain with C38A, A55S, C127A
B25: SEQ ID NO 35 (ligand)
chain: B4 chain with Y1G, F2A, M51G, D54A, T63A
B26: SEQ ID NO 49 (ligand)
chain: B4 chain with C38S, C68S, K70C, C76S, C127S
B27: SEQ ID NO 44 (ligand)
chain: B4 chain with F2A
B28: SEQ ID NO 46 (ligand)
chain: B4 chain with M51G
B29: SEQ ID NO 9 (ligand)
chain: B4 chain with C38A, A55S, C68A, D98C
B30: SEQ ID NO 45 (ligand)
chain: B4 chain with D54A
B31: SEQ ID NO 47 (ligand)
chain: B4 chain with K6E, C38S, A53K, A55S, C68S, C76S, C127S
B32: SEQ ID NO 6 (ligand)
chain: B4 chain with V11I, C38A, A55S, T63A, C68A, C76A, D98C, C127A
B33: SEQ ID NO 43 (ligand)
chain: B4 chain with Y1G
B34: SEQ ID NO 5 (ligand)
chain: B4 chain with V11I, C38A, A55S, T63A, C68A, C76A, M86C, C127A
B35: SEQ ID NO 55 (ligand)
chain: B4 chain with K6E, C38S, A55S, T63A, C68S, K70C, C76S, C127S
B36: SEQ ID NO 4 (ligand)
chain: B4 chain with C38A, A55S, C68A, M86C
B37: SEQ ID NO 48 (ligand)
chain: B4 chain with K6E, C38S, A53K, A55S, C68S, K70C, C76S, C127S

Molecular target: T1, IL-18 receptor (IL-18Rαβ) on cells
Experiment: cell-based or functional assay

Row | Binder | HEK-Blue IL-18R reporter EC50
1 | B1 | 2.5 pM
2 | B2 | 1.68 pM
3 | B3 | 14 pM
4 | B4 | 272 pM
5 | B5 | 0.02 pM
6 | B6 | 0.04 pM
7 | B7 | 0.203 pM
8 | B8 | 0.86 pM and 0.53 pM
9 | B9 | 0.98 pM
10 | B10 | 0.17 pM
11 | B11 | 0.04 pM
12 | B12 | 1.77 pM
13 | B13 | 9.12 pM
14 | B14 | 0.29 pM
15 | B15 | 0.1 pM
16 | B16 | 0.26 pM
17 | B17 | 0.07 pM
18 | B18 | 0.08 pM
19 | B19 | 3.73 pM
20 | B20 | 0.4 pM
21 | B21 | 0.1 pM
22 | B22 | 0.268 pM
23 | B23 | 0.79 pM
24 | B24 | 0.17 pM

Molecular target: T1, IL-18 receptor (IL-18Rαβ) on cells
Experiment: cell-based or functional assay
Remark: another data set of the same source

Row | Binder | EC50 (IFNγ stimulation, NK92) [nM]
25 | B4 | 0.824
26 | B25 | > 55
27 | B26 | 58.5
28 | B7 | 0.006
29 | B8 | 0.045
30 | B27 | > 1000
31 | B9 | 0.138
32 | B28 | 7.4
33 | B29 | 0.069
34 | B30 | 30
35 | B31 | 0.115
36 | B32 | 1.37
37 | B33 | 6.12
38 | B34 | 0.075
39 | B35 | 17.2
40 | B10 | 0.012
41 | B36 | 0.022
42 | B12 | 0.0268
43 | B37 | 0.488
44 | B13 | 0.962
45 | B22 | 0.015
46 | B23 | 0.144
47 | B24 | 0.026
